This is an account of results in US20050222039A1, “Animal treatment” (priority 2001, published 2005).

Series [1] has as its system Romney ewes. Put plainly: Trial 2: bromocriptine treatment of winter-lambing Romney ewes (plasma prolactin, wool growth, lambs). It counts as in vivo, sheep. The note with it: bromocriptine given to pregnant ewes before or after parturition. Here is the method: Natural and experimental changes in plasma prolactin concentration and their effects on wool production in winter-lambing Romney ewes were measured.
Fourteen non-pregnant and 29 pregnant ewes were maintained indoors from early April 1995 for 12 months under controlled photoperiod and controlled dietary intake. Two groups (n=8) were held under long day photoperiod (16L:8D; LD non-pregnant and LD-lambed) while 2 others were exposed to natural photoperiod (ND non-pregnant, n=6 and ND-lambed, n=7). Two further groups (n=7) of pregnant ewes housed in natural days were treated with bromocriptine, either from 1 week before parturition (ND-BrB) or 1-3 days after parturition (ND-BrA), to suppress prolactin secretion.
Lambing occurred between 12 and 18 June. Plasma prolactin, mean fibre diameter and wool growth were measured at regular intervals and the results were plotted in FIG. 3.

The subject of series [2] is Romney ewes. It counts as in vivo, sheep. The source says: The effects of two methods of administration of exogenous prolactin on wool growth were examined.
Forty-three mixed age Romney ewes were maintained indoors in individual pens from April until October, and fed to maintain a constant maternal live weight (independent of conceptus and fleece weights). A control group (ND non-pregnant) was not mated (n=8). Thirty-five other ewes (comprising Groups 2-5) were mated in April. Groups 1-4 were maintained in natural photoperiod while Group 5 (LD-lambed, n=10) was subjected to long days (16L:8D) from 1 week after mating for the duration of the trial (ie 18 days).
An ovine prolactin pituitary extract (0.80 mg/kg/day) was administered by either daily subcutaneous injection to sheep of Group 3 (PRL-INJ, n=10) or by intravenous infusion via a jugular cannula to sheep of Group 4 (PRL-INF, n=2) (from one week after mating for a temporary period of 18 days).
The sheep were shorn on entry to the experiment and again at the conclusion of the experiment in late September and a mid-side wool sample was measured for fibre diameter and yield. Wool samples were clipped from a standardised 100×100 mm mid-side patch on the right side of each ewe at monthly intervals to determine changes in seasonal clean wool production and mean fibre diameter. Wool growth and plasma prolactin concentrations were measured at regular intervals and the results were plotted in FIGS. 4 and 5.

The test system of series [3] is prolactin receptor long form gene expression. Briefly: Trial 3: skin prolactin receptor long form gene expression by real-time PCR. It counts as in vivo, sheep. Here is the method:
Six midside skin biopsies were collected at intervals between April and June for measurement of prolactin receptor long form gene expression by real-time PCR and the results are plotted in FIG. 6. An assay for the short form of the ovine prolactin receptor was also developed, but results are not presented since only very low levels of expression were detected.
(§1) The relative expression of prolactin receptor mRNA was measured using Taqman real-time PCR (Applied Biosystems). RNA was extracted from skin samples using TRIzol reagent according to manufactures protocol (Invitrogen). Total RNA was then quantified using RiboGreen reagent (Invitrogen) and all samples were standardized to a concentration of 0.5 μg/μl of total RNA. The reverse transcriptase reaction (Superscript II RT-PCR kit, Invitrogen) was used to generate single stranded cDNA from 0.5 μg of total RNA.
(§2) The primers and probes for the long form of the prolactin receptor were designed using the Primer Express program (Applied Biosystems).
(§3) The 18S ribosomal RNA pre-developed assay reagent (Applied Biosystems) was used as an internal control and the reactions were set up according to the manufacturers instructions. Data was analysed using the software provided by Applied Biosystems. Results on relative mRNA quantities were obtained by the standard curve method.
A general note: Quantitative PCR measures a nucleic acid by following its amplification.

The subject of series [4] is Romney ewes. Put plainly: Trial 4: 3-, 9- or 18-day prolactin infusion, wool growth in pregnant Romney ewes. The format is in vivo, sheep. As to conditions: for mean total patch weight (clean wool): 12-month trial. The protocol:
Trial 4 was conducted to compare different periods of exogenous prolactin administration on wool growth.
Eighteen 3 year old Romney ewes were maintained indoors in individual pens under natural photoperiod for 12 months from March 2000. […] The ewes were fed to maintain a constant maternal live weight (independent of conceptus and fleece weights). A control group (ND non-pregnant) was not mated (n=6). Twelve other ewes (comprising Groups 2-4) were mated on 23 April.
An ovine prolactin pituitary extract (1.0 mg/kg/day) was administered by intravenous infusion via a jugular cannula commencing 11 days after mating (4 May) for temporary periods of either 3 days (Group 2, n=6), 9 days (Group 3, n=3) or 18 days (Group 4, n=3).
The sheep were shorn on entry to the experiment and again at the conclusion of the experiment in March 2001 and a mid-side wool sample was measured for fibre diameter and yield. Wool samples were clipped from a standardised 100×100 mm mid-side patch on the right side of each ewe at monthly intervals to determine changes in seasonal clean wool production and mean fibre diameter. Wool growth and plasma prolactin concentration were measured at regular intervals and the results were plotted in FIGS. 7 and 8.

Series [5] relates to prolactin receptor long form gene expression. Put plainly: Trial 4: skin prolactin receptor long form gene expression by real-time PCR. It counts as in vivo, sheep. The protocol: as §1, §2, §3
Six midside skin biopsies were collected at intervals between April and June for measurement of prolactin receptor long form gene expression by real-time PCR and the results are plotted in FIG. 9.

The nature of series [6]: Trial 5: plasma prolactin after two 9-day prolactin infusions in non-pregnant Romney ewes. The format is in vivo, sheep. As to conditions: intravenous 1.0 mg/kg/day for 9 days. Here is the method:
(§4) Twenty-one, mixed age, non-pregnant Romney ewes were maintained indoors in individual pens from September 2001 until February 2002. The ewes were fed to maintain a constant live weight. They were divided into 3 groups: short day controls (n=7), short day prolactin infused (n=7) and normal day controls (n=7). An ovine prolactin pituitary extract (1.0 mg/kg/day) was administered to each ewe in the short day infused group by intravenous infusion via a jugular cannula commencing on 9 October for 9 days. A second 9-day prolactin infusion was administered to the same ewes commencing on 20 November, 33 days after the end of the first infusion.
Plasma prolactin concentrations were measured at regular intervals and ten midside skin biopsies were collected at intervals between October and December 2001 for measurement of prolactin receptor long form gene expression by real-time PCR. The results are plotted in FIG. 10.

Series [7] relates to prolactin receptor long form gene expression. Put plainly: Trial 5: skin prolactin receptor long form gene expression by real-time PCR. The format is in vivo, sheep. Here is the method: as §1, §4
Plasma prolactin concentrations were measured at regular intervals and ten midside skin biopsies were collected at intervals between October and December 2001 for measurement of prolactin receptor long form gene expression by real-time PCR. […]

A short description of series [8]: Trial 6: plasma prolactin after 9-day prolactin infusion in pregnant Romney or Wiltshire ewes. The format is in vivo, sheep. The note with it: infusion 40 mg/day for 9 days, pregnant ewes in short days. The protocol: (§5) Four groups, each comprised of seven 1-2 year old Romney or Wiltshire ewes were shorn and maintained indoors in individual pens from March until November 2002. The animals were fed to maintain a constant maternal live weight (independent of conceptus and fleece weights). The ewes were mated in March, and maintained in short days (8L:16D). Half of the ewes were cannulated and infusions of prolactin (40 mg/day) for 9 days commenced one week after mating. Blood samples and skin biopsies were collected from all ewes at intervals to monitor plasma prolactin and skin prolactin receptor gene expression respectively. The results are plotted in FIG. 11.

Series [9] concerns prolactin receptor gene expression. Briefly: Trial 6: skin prolactin receptor gene expression in Romney or Wiltshire ewes. It counts as in vivo, sheep. As to conditions: Wiltshire ewes treated in April, P<0.05. The protocol: as §5
Series [10] shares this test system. Briefly: Trial 8: prolactin receptor gene expression in mice mammary gland. It counts as in vivo. As to conditions: 3-day infused group, days 7 and 14, P<0.05. The protocol:
Swiss female mice were maintained in cages at a constant temperature of 22 C., under a photoperiod regime of 14 hours light: 10 hours dark, fed a diet of formulated mouse pellets ad libitum with access to fresh tap water. At 21 days of age, subcutaneous implants releasing 250 μg/day of bromocriptine over 60 days (Cat. Number SC-231; Innovative Research of America Inc.) were inserted under anaesthetic. At the same time, the mice received a slow release 100 μl osmotic pump (Alzet Model 1007D; Alza Corporation, Palo Alto, Calif.) delivering ovine prolactin (400 μg/day) for either 3 or 7 days. Mice were sacrificed in groups of 3 at intervals before, during and after prolactin administration. They were anaesthetised using CO2 and blood sampled by heart puncture, prior to euthanasia by cervical dislocation. The blood was centrifuged and the plasma stored at −20 C. by radioimmunoassay for ovine prolactin. The mammary glands were dissected from each mouse and snap frozen in liquid nitrogen prior to assay by real-time PCR for prolactin receptor gene expression. The results are plotted in FIG. 13.

In series [11] the test system is prolactin receptor. The note with it: cited from earlier work.
Series [12] concerns rabbits. As to conditions: bromocriptine-treated rabbits, single injection of 3 mg of prolactin; cited from earlier work.
For series [13], the system named is sheep. As to conditions: sheep held in darkness, infusion of prolactin; cited from earlier work.
For series [14], the system named is cows. As to conditions: infusions of exogenous bovine prolactin; cited from earlier work.
Where [15] appears, read: model parameter from literature.

Changes are numbered by the printed parent chain.

`CC(C)C[C@H]1C(=O)N2CCC[C@H]2[C@]2(O)O[C@](NC(=O)[C@@H]3C=C4c5cccc6[nH]c(Br)c(c56)C[C@H]4N(C)C3)(C(C)C)C(=O)N12` [bromocriptine]: the “birth weight or live weight changes of lambs” value in series [1] is “did not affect”.

B1: prolactin: ovine prolactin pituitary extract; peptide hormone of approximately 200 amino acids, given by infusion, injection or osmotic pump (protein, UniProt P01240 31-229, looked up)
Prolactin: TPVCPNGPGNCQVSLRDLFDRAVMVSHYIHNLSSEMFNEFDKRYAQGKGFITMALNSCHTSSLPTPEDKEQAQQTHHEVLMSLILGLLRSWNDPLYHLVTEVRGMKGVPDAILSRAIEIEEENKRLLEGMEMIFGQVIPGAKETEPYPVWSGLPSLQTKDEDARHSAFYNLLHCLRRDSSKIDTYLKLLNCRIIYNNNC
modifications: pituitary extract
Turning to B1, in series [2] (PRL-INF, 6-month trial, ND-lambed controls 1.23 kg, SEM ±0.13 kg, P<0.01), the “mean clean fleece weight” value amounted to 1.63 kg. The “increase in mean fibre diameter” value in series [2] (PRL-INF, by September, P=0.05) stood at 2 μm. In series [2] (PRL-INF, intravenous infusion 18 days, n=2, May and throughout pregnancy), the “decline in clean wool growth rate” value is “arrested in May and remained high”. Besides, the “September clean wool growth rate relative to untreated ND-lambed ewes” value in series [2] (PRL-INF, intravenous infusion, P<0.001) is given as “approximately twice”. In addition, the “mean fibre diameter relative to ND-lambed controls” value in series [2] (PRL-INJ, P<0.10) is listed as “appeared to be lower”. In addition, the “September clean wool growth vs untreated ND-lambed ewes” value in [2] (PRL-INJ, daily subcutaneous injection, P<0.05) is “lower”. In series [2] (daily subcutaneous injections 0.8 mg/kg/day (PRL-INJ)), the “decline in clean wool growth rate compared to pregnant controls” value is reported as “no initial effect”. Moreover, the “prolactin receptor gene expression, differences between remaining treatment groups” value in [3] (PRL-INJ (injected) among remaining groups, over the trial) is “no significant differences”. In addition, the “duration of high level of receptor expression vs untreated ewes” value in [3] (infused ewes, April to June, P<0.05) is reported as “sustained for two months”. Further, in series [3] (infused ewes, during and after the 18 day infusion, P<0.01), the “prolactin receptor gene expression compared to other treatment groups” value is listed as “significantly elevated”. Besides, the figures for the “mean total patch weight (clean wool)” value in [4] (3-day infusion), in [4] (9-day infusion) and in [4] (18-day infusion) were 0.74 g, 0.91 g and 0.66 g, respectively. Also, the “clean patch wool growth vs 3-day and 18-day infused groups” value in [4] (9-day infusion 1.0 mg/kg/day, during May) is reported as “higher wool growth”. In addition, in [4] (9-day infusion, July), the “mean fibre diameter difference vs other infused groups” value is “approximately 3 μm”. The “wool growth rate vs other infused groups” value in series [4] (9-day infusion, July, P<0.01, persisted until November) was “higher than either of the other infused groups”. In addition, the “mean fibre diameter vs 3-day infused group” value in [4] (9-day infusion, June, P<0.01) is “significantly higher”. The “prolactin receptor gene expression following commencement of infusions” value is “all groups except the 3-day group” in series [5] (3-day infusion group); “dropped significantly” in series [5] (9-day and 18-day infusion groups). Moreover, in [5] (all infused groups, not statistically significant), the “prolactin receptor gene expression following termination of infusions” value was “rose”. For the same molecule, the “plasma prolactin levels on termination of the infusions” value in series [6] is “fell rapidly to baselines levels”. Moreover, in [6] (short day ewes), the “plasma prolactin levels during infusion” value is given as “approximately 500 ng/ml”. For the same molecule, the “prolactin receptor gene expression” value in [7] (first 9-day infusion, P<0.01) was “elevated”; in [7] (second 9-day infusion, P<0.02), “elevated”. Further, the “plasma prolactin levels during prolactin administration” value in series [8] is “approximately 500 ng/ml”. In addition, in series [9], the “prolactin receptor gene expression in September vs non-treated Wiltshire ewes” value is “increase”. The “prolactin receptor gene expression vs control group and 7-day infused group” value in series [10] was “elevated”. The “α, rate of formation of dimer complex” value in series [11] (model parameter from literature [Gertler et al., 1996]) was 48000 M⁻¹ s⁻¹. In series [11] (setting [15]), the “d12, dissociation rate of hormone-receptor complex” value is 4717.4 day⁻¹. Also, in [11] (setting [15]), the “d, dissociation rate of hormone-receptor complex” value was 12.96 day⁻¹. In [11] (setting [15]), the “α1, rate of formation of trimer complex” value was 35000 M⁻¹ s⁻¹. Besides, in series [11] (setting [15]), the “γ, clearance rate constant of plasma prolactin” value was 35.6 day⁻¹. For the same molecule, the “recovery in milk yield” value in series [12] is reported as “accelerated”. In [13], the nitrogen retention entry is on record as “increases”.

B2: bovine prolactin: exogenous bovine prolactin infused in cows (literature) (protein, UniProt P01239 31-229, looked up)
Prolactin: B1 Prolactin with N31D, V108A, H165Y
B2: in series [14], the “bromocriptine-induced reductions in milk yield” value is “can prevent”.
